From patent publication US20110318347A1

Legend:
human CXCR4 (human) [1] = test: competition vs [125I]-CXCL12 (40 pM), membranes of HEK293T cells expressing CXCR4
human CXCR4 (human) [2] = test: periplasmic fraction (1:10), displacement of [125I]-CXCL12, HEK293T-CXCR4 membranes; - = 0-29%, + = 30-69%, ++ = 70-100%
human CXCR4 (human) [3] = test: competition with [125I]-238D2 on HEK293T-CXCR4 membranes
human CXCR4 (human) [4] = test: competition vs [125I]-238D4 (3 nM), membranes of HEK293T cells expressing CXCR4
human CXCR4 (human) [5] = test: cell-based or functional assay
CCR5 = CCR5 (UniProt P51681); test: cell-based or functional assay
Sequence of CCR5 (P51681 whole entry): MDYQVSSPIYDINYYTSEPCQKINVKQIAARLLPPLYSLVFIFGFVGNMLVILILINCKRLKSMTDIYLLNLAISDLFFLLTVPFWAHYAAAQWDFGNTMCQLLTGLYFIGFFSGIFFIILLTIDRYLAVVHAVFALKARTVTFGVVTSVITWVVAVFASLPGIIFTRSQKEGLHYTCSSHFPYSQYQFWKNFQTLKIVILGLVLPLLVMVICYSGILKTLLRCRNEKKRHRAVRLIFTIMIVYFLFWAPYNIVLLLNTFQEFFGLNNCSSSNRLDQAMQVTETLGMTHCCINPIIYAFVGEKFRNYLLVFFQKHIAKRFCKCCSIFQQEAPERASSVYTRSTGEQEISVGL

human CXCR4 (human) [6] = molecular target: human CXCR4 (human)
human CXCR4 (human) [7] = test: competition with [125I]-238D4 on HEK293T-CXCR4 membranes
human CXCR4 (human) [8] = test: competition with [125I]-CXCL12 on HEK293T-CXCR4 membranes
human CXCR4 (human) [9] = test: competition vs [125I]-238D2 (3 nM), membranes of HEK293T cells expressing CXCR4

B1: Nanobody 238D4 (VHH, from a related filing, part only)
VHH: EVQLMESGGGLVQAGGSLRLSCAASGRTFNNYAMGWFRRAPGKEREFVAAITRSGVRSGVSAIYGDSVKDRFTISRDNAKNTLYLQMNSLKPEDTAVYTCAASAIGSGALRRFEYDYSGQGTQVTVSS
Displacem. (%) (human CXCR4 (human) [1]): 99%
pKi (human CXCR4 (human) [1]): 8.22
percent inhibition of specific [125I]-CXCL12 binding (human CXCR4 (human) [2]): 70 to 100%
IC50 (read off the curve) (human CXCR4 (human) [3]): 3 nM
Displacem. (%) (human CXCR4 (human) [4]): 103%
pKi (human CXCR4 (human) [4]): 8.55
Anti-HIV-1 activity (in nM), MT-4/HE (human CXCR4 (human) [5]): 82 nM
Anti-HIV-1 activity (in nM), MT-4/NL4.3 (human CXCR4 (human) [5]): 40.3 nM
Anti-HIV-1 activity (in nM), PBMC/HE (human CXCR4 (human) [5]): 13.6 nM
Anti-HIV-1 activity (in nM), PBMC/NL4.3 (human CXCR4 (human) [5]): 13.7 nM
Anti-HIV-1 activity (in nM), U87.CD4.CXCR4/NL4.3 (human CXCR4 (human) [5]): 107 nM
CRE activation, HEK293T-CXCR4-CREbgal/0.01-100 nM CXCL12, Imax (%) (human CXCR4 (human) [5]): 90%
CRE activation, HEK293T-CXCR4-CREbgal/0.01-100 nM CXCL12, pKi or pIC50 (pKB by the text) (human CXCR4 (human) [5]): 7.7
Chemotaxis, Jurkat/0.3 nM CXCL12, Imax (%) (human CXCR4 (human) [5]): 101%
Chemotaxis, Jurkat/0.3 nM CXCL12, pKi or pIC50 (human CXCR4 (human) [5]): 8.31
IC50, HIV-1 NL4.3, MT-4 cells, exp. 1 (human CXCR4 (human) [5]): 0.833 µg/mL
IC50, HIV-1 NL4.3, PBMC donor 1 (human CXCR4 (human) [5]): > 1 µg/mL
IC50, HIV-1 NL4.3, PBMC donor 2 (human CXCR4 (human) [5]): 0.551 µg/mL
IC50, HIV-1 UG270, PBMC donor 1 (human CXCR4 (human) [5]): > 1 µg/mL
IC50, HIV-1 UG270, PBMC donor 2 (human CXCR4 (human) [5]): > 1 µg/mL
IC90, HIV-1 NL4.3, MT-4 cells, exp. 1 (human CXCR4 (human) [5]): > 1 µg/mL
IC90, HIV-1 NL4.3, PBMC donor 1 (human CXCR4 (human) [5]): > 1 µg/mL
IC90, HIV-1 NL4.3, PBMC donor 2 (human CXCR4 (human) [5]): > 1 µg/mL
IC90, HIV-1 UG270, PBMC donor 1 (human CXCR4 (human) [5]): > 1 µg/mL
IC90, HIV-1 UG270, PBMC donor 2 (human CXCR4 (human) [5]): > 1 µg/mL
IP accumulation, HEK293T-CXCR4-Gαqi5/30 nM CXCL12, Imax (%) (human CXCR4 (human) [5]): 90%
IP accumulation, HEK293T-CXCR4-Gαqi5/30 nM CXCL12, pKi or pIC50 (human CXCR4 (human) [5]): 8.39
nM IC50, HIV-1 NL4.3, PBMC donor 1 (human CXCR4 (human) [5]): > 67 nM
nM IC50, HIV-1 NL4.3, PBMC donor 2 (human CXCR4 (human) [5]): 36.7 nM
nM IC50, HIV-1 UG270, PBMC donor 1 (human CXCR4 (human) [5]): > 67 nM
nM IC50, HIV-1 UG270, PBMC donor 2 (human CXCR4 (human) [5]): > 67 nM
Anti-HIV-1 activity (in nM), PBMC/BaL (CCR5): > 100 nM
Anti-HIV-1 activity (in nM), U87.CD4.CCR5/BaL (CCR5): > 500 nM
IC50, HIV-1 BaL, PBMC donor 1 (CCR5): > 1 µg/mL
IC50, HIV-1 BaL, PBMC donor 2 (CCR5): > 1 µg/mL
IC90, HIV-1 BaL, PBMC donor 1 (CCR5): > 1 µg/mL
IC90, HIV-1 BaL, PBMC donor 2 (CCR5): > 1 µg/mL
nM IC50, HIV-1 BAL, PBMC donor 1 (CCR5): > 67 nM
nM IC50, HIV-1 BAL, PBMC donor 2 (CCR5): > 67 nM
IC50 (read off the curve), migration of Jurkat cells towards 0.3 nM CXCL12 (human CXCR4 (human) [6]): 9 nM
IC50 (read off the curve) (human CXCR4 (human) [7]): 4 nM
IC50 (read off the curve) (human CXCR4 (human) [8]): 10 nM
Displacem. (%) (human CXCR4 (human) [9]): 101%
pKi (human CXCR4 (human) [9]): 8.8
